# Assay results published in a protein production outcome set (Wang et al. 2014).
# Assay: label from the status in PepcDB records
# 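Also: failed if final PepcDB status was selected cloned or expressed and not failed if soluble or beyond.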
row,Sequence,protein production
1,MGHHHHHHSHMRTISFFNNKGGVGKTTLSTNVAHYFALQGKRVLYVDCDPQCNATQLMLTEEQTESIYLDGLNDEVAERNSLAKTVYAIFVPLREGESQIAAEITPMRSERFGVDVLPGHPALSQIEDLMSDSWQSALGRQTGPFRRIHWAGQLAHAMERDDRYDVIFFDVGPSLGPFNRTVLLGCDAFVTPTATDLFSFHAFGNLARWFDAWVTQYAEIHEGNMAEWKKYS,failed
2,MNRKMFGELISEAIAMFIIIALGESAAAMYILYDPSPYQNAYWGLCICWGLAVTIAIYVTASVSGTHANPAVTLALALYRGFPWKKVLPYWAAQVIGAFIGAMIVYQLYSPVIDYYNHIHQLTRDAGGAAGVFFTSTGMAITPIHALGDEIILTAFLVFGIFAITERFNEAAPTANSGALVIGLLVATIGACMGYLEGWAINPARDLGPRLFAFLAGWGESAFPGKDHYWWIPIIGPLIGGVMGATAFQCLIYPFLPARVQAKQQAAILLHRKHP,failed
3,MTDQVFGKVSKVVCVGAGYVGGPTCAMIAHKCPHITVTVVDMNTAKIAEWNSDKLPIYEPGLDEIVFAARGRNLFFSSDIPKAIAEADLIFISVNTPTKMYGRGKGMAPDLKYVESVSRTIAQYAGGPKIVVEKSTVPVKAAESIGCILREAQKNNENLKFQVLSNPEFLAEGTAMKDLANPDRVLIGGESSPEGLQAVAELVRIYENWVPRNRIITTNTWSSELSKLVANAFLAQRISSINSISAVCEATGAEISEVAHAVGYDTRIGSKFLQASVGFGGSCFQKDVLSLVYLCESLNLPQVADYWQGVININNWQRRRFADKIIAELFNTVTDKKIAIFGFAFKKNTGDTRESSAIHVIKHLMEEHAKLSVYDPKVQKSQMLNDLASVTSAQDVERLITVESDPYAAARGAHAIVVLTEWDEFVELNYSQIHNDMQHPAAIFDGRLILDQKALREIGFRTFAIGTSPDQAYNLFGTAGY,not failed
4,MCSYARATDANGESFIYCRTWQGQFFRFKLEDRVYDYVTTFAKSDACLATDPDDPTKIYCALNEYNKITCIDLTKNPEDSGFETDVCGIQGPGAYQDGHVSVARLNNPQQILSMHDPETGEKVIYICDANNNCVRMYNMETKLMSTVAGIGGKSGYAAGNPTVSRMNRPYGICITPENDIYVADAGNKVIMKLAFMLEHHHHHH,failed
5,ELHPRTGRLVSLSACGRTARRQQPGQEFNHGLVLSREPLRDGRVFTVRIDRKVNSWSGSIEIGVTALDPSVLDFPSSATGLKGGSWVVSGCSVLRDGRSVLEEYGQDLDQLGEGDRVGVERTVAGELRLWVNGRDCGVAATGLPPRVWAVVDLYGKCTQITVL,not failed
6,MPAPTHGCPLPRFSVIVPAYKVQAYLHECLESVLEQSFPDLELIAVDDCSPDACGAIIDEFAARDTRVRPVHLPQNTGLGRARNAALAEATGDYLIFLDADDSLTPGALQAVADRIKETSEPDVLVYDYARTFWSGETVRNREAGQLTEQGPAPFRLDDRPGLLNVLMVVWNKAYRREFVEREGFTFPPGLYEDTPWTYPALMAAETVATLDRVCVHYRQRRRGNILGTTGRGHFDIFGQYDRVFAYLDGHPELAHWRPVLFRRMVDHVATVFTRRGRLPRGSHAEFLRRARAHYRRHRTPGPPARPRFRLRHVLVRLGSHRTYRLLSLASRTRVRTARSATAVLGRLAGVALQAHYRLQRRLPVRADRAVFASHQGQGHGCNPGALEAAFRTLAPHIRTAWIARPEHHHTVPAATRRVRPGSAAYWTALARSKYLVSNADFDRRLRKRPGQIVIQTHAGTPLKRMGLDLQDRPAAARDTDFAQVLRGADQWDYCLSANRHSTLVWERVFPSGFTTLEYGQPRNDRFQQATSADVTRLRESLGIPHGSVAILYAPTYRDYRRSQRHLLDLERVLRQLGPRYVVLTRAHPSYGAPLTRSDGARLIDVSGHPSVESLCLASDALVTDYSSLMFDYANLDRPIVVYADDWEAYEAARGTYFDLRAFPPGAVARTEEELIDIFATGHWRGSRAAQLRAAFRARFCPYDDGRAAERVVRRIVLGEGAREGERNSEGDGGATGLPPVVPLAGRHPVPSAAAALARPPLATVPHPAGPVPVVDSP,failed
7,MEPKPFFLCIIFLLFCSSSSEILQKQTYIVQLHPNSETAKTFASKFDWHLSFLQEAVLGVEEEEEEPSSRLLYSYGSAIEGFAAQLTESEAEILRYSPEVVAVRPDHVLQVQTTYSYKFLGLDGFGNSGVWSKSRFGQGTIIGVLDTGVWPESPSFDDTGMPSIPRKWKGICQEGESFSSSSCNRKLIGARFFIRGHRVANSPEESPNMPREYISARDSTGHGTHTASTVGGSSVSMANVLGNGAGVARGMAPGAHIAVYKVCWFNGCYSSDILAAIDVAIQDKVDVLSLSLGGFPIPLYDDTIAIGTFRAMERGISVICAAGNNGPIESSVANTAPWVSTIGAGTLDRRFPAVVRLANGKLLYGESLYPGKGIKNAGREVEVIYVTGGDKGSEFCLRGSLPREEIRGKMVICDRGVNGRSEKGEAVKEAGGVAMILANTEINQEEDSIDVHLLPATLIGYTESVLLKAYVNATVKPKARIIFGGTVIGRSRAPEVAQFSARGPSLANPSILKPDMIAPGVNIIAAWPQNLGPTGLPYDSRRVNFTVMSGTSMSCPHVSGITALIRSAYPNWSPAAIKSALMTTADLYDRQGKAIKDGNKPAGVFAIGAGHVNPQKAINPGLVYNIQPVDYITYLCTLGFTRSDILAITHKNVSCNGILRKNPGFSLNYPSIAVIFKRGKTTEMITRRVTNVGSPNSIYSVNVKAPEGIKVIVNPKRLVFKHVDQTLSYRVWFVLKKKNRGGKVASFAQGQLTWVNSHNLMQRVRSPISVTLKTN,failed
8,MNEVKAVWIRQWFPGLYQFKDYQRGWLTDDVRAAFSVVAVALPVAIAYAQLTGVPAIVGLYSCVLPMLVYALMGTSRQLIVGPDAATCAVIAAVVTPLAAGDTTKHWQLVMTMTAMTGFWCILASRLKLGIFADFLSRPILLGLLNGVALTIIVGQFAKVLGLKYEKRYLLERIVEAPELLYSLHWQTLGLSALTLAIYLVIKRWQPRWPAAMFAIMVAALLVWALNLESVGVQVVGVIQGGLPEFQAPAFDLGISRELVMPALNLAMVSFVSMMLTARSFAAKNGYDIDADKEFRALGVANVAAAFSQGFAISGADSRTAVNDANGGKSQLVSVIAALFIALVAVFAYQPLQFIPVAALGVVLIIASLSLLDLKGVWNLRKRDKDAFYLALITFIAVLVIGVIPGITLAVLLGLFQFLKLVMRPTDQMMGLDEEGTLRTLDGSEKAKPIPGMVIFRFNSPLTYFNAPYFKRRILDQTEREGAQVGCVIIDAVASFTHLDLSVMAMLADLHGILKKRGIRLILAGRKRSLRHWCDLTGINTAEGGIVLRADMYLAIKLSGCYLSAMEEGHVPVVQKEPDISVLLKPTTTEVA,failed
9,MTDAPADAPLDADARRAVKPVICYPNDSLPRPDLALYRAARASARKTGEVLVPPREGRCFEVKAGQFFRISSVEGPQVGDLNLHNLHDLTERFFSGKTRALHGTHVTTGERLWSNLPYLRPMATIIEDTLGWYGIDQYGGSVHDVIGTRCDPYTGNLLAGGHYHHCCHSNLTRALADHTGLPLHEAEMLVHDVLNVFMCTGFTRDTGQYFMKASPVRPGDYLEFFAEIDLLGNLSACPGGDCSSEHSSDTASCHPLLVEIFAPAEGMLGDWPSPSVNGYDRSHGR,not failed
10,MLNRVFLEGEIESSCWSVKKTGFLVTIKQMRFFGERLFTDYYVIYANGQLAYELEKHTKKYKTISIEGILRTYLERKSEIWKTTIEIVKIFNPKNEIVIDYKEI,not failed
11,MPSSAFPDTRMTLACRRMAGGASALPSFRMGAGLAFQPGLENAMSTVQDYIVADIGLADYGRKELDIAETEMPGLMSCRSELGETKPLKGARISGSLHMTIQTAVLIETLTALGAEVRWASCNIFSTQDHAAAAIAASGVPVFAVKGESLTEYWDYTDRIFQWTDGGQSNMILDDGGDATMYILLGARAEAGENVLVNPSSEEEEILFAQIKKRMAATPGFFTKQRDAIKGVTEETTTGVNRLYQLSQKGLLPFPAINVNDSVTKSKFDNKYGCKESLVDGIRRATDVMMAGKVAVVCGYGDVGKGCAASLIGAGARVKVTEVDPICALQAAMDGFEVVRLEDVVKTADIFITTTGNKDVIRIEHMREMKDMAIVGNIGHFDNEIQVVALKNLKWVNIKPQVDMIEFPAGNRMILLSEGRLLNLGNATGHPSFVMSASFTNQVLAQIELFTKPDAYKNQVYVLPKHLDEKVARLHLEKLGVRLTELSDEQASYIGVTPSGPFKADHYRY,failed
12,RYPTNNFGNCTGCSATFSVLKKRRSCSNCGNSFCSRCCSFKVPKSSMGATAPEAQRETVFVCASCNQTLSK,not failed
13,ASETQQWKTLEDTRSALMGVYGLTRAALADNNTHWICGDLRKGDFTVYKRSDLQAVSDNELNKPYDLLKKVSNWRRFYAVINAASVFMEKAPRTVELDRSYSEQNLKYDIAQVRALRAFAYFYMVRIWGDVPLVTYSYDNGTFPSMPRTDAQTVLSYAKAELLTAIEDLPYQYGTQTNLYYGSYGAQWQGKLFNKLSAYSVLAHICAWQGNYAEAETYSAFIIDHASEINAKYTSIADLTSETGLFYSNASVKGSRILGFNFAHNDNEATQSGHLEQLTLAYPLVQKSYPEIYISKDSLFSIFTNFDDLRFGIIDTIKYSSYYVQNLNEETPVFSKIKIIQDGSAKDNDFGVFGSSIVFTRLEDITLLRAEALCALNRSTEAVSYLNMIRTNRGLREVSFKKDFGNNRESLIAEIFEERRRELMGEGWRWYDLVRRQKLMKDNEAFLRLISSGGIYWPVSEDIITANSQIEQNEFWK,not failed
14,MEWGISLQTKWSLSEYENPKRYDIENKSLSDFPFLLSWAQKLHIQNEWILDIACGTGRVTIPFIENGYQMIGVDIHEGMLAEAKKKTTDCKKVKWLQQDCLQLSMNEAIPFAFMVGHGFQHFLTNTDQNKLLTSIHHVLAENGIFIFDTRFPSKEELIQPSTEEYWTTISDEKGRECDLYTEMTYDLIQQIQHYITIRKFYDDDALVEELKTTIDLRYTYPQELERLLVANGFELLHIYNDWEGNELGEDCYSMVVVCRKK,failed
15,MVGLLVEDTIDDQGWNRKAYEGLLNIHSNLDVDVVLEEGVNSEQKAHRRIKELVDGGVNLIFGHGHAFAEYFSTIHNQYPDVHFVSFNGEVKGENITSLHFEGYAMGYFGGMVAASMSETHKVGVIAAFPWQPEVEGFVDGAKYMNESEAFVRYVGEWTDADKALELFQELQKEQVDVFYPAGDGYHVPVVEAIKDQGDFAIGYVGDQADLGGSTILTSTVQHVDDLYVLVAKRFQEGKLESGNLYYDFQDGVVSLGEFSSVVPDEVREQITDAISTYIQTGQFPHEEER,not failed
16,MNLVETAQAIKTGKVSLGIELGSTRIKAVLITDDFNTIASGSYVWENQFVDGTWTYALEDVWTGIQQSYTQLAADVRSKYHMSLKHINAIGISAMMHGYLAFDQQAKLLVPFRTWRNNITGQAADELTELFDFNIPQRWSIAHLYQAILNNEAHVKQVDFITTLAGYVTWKLSGEKVLGIGDASGVFPIDETTDTYNQTMLTKFSQLDKVKPYSWDIRHILPRVLPAGAIAGKLTAAGASLLDQSGTLDAGSVIAPPEGDAGTGMVGTNSVRKRTGNISVGTSAFSMNVLDKPLSKVYRDIDIVMTPDGSPVAMVHVNNCSSDINAWATIFHEFAARLGMELKPDRLYETLFLESTRADADAGGLANYSYQSGENITKIQAGRPLFVRTPNSKFSLPNFMLTQLYAAFAPLQLGMDILVNEEHVQTDVMIAQGGLFRTPVIGQQVLANALNIPITVMSTAGEGGPWGMAVLANFACRQTAMNLEDFLDQEVFKEPESMTLSPEPERVAGYREFIQRYQAGLPVEAAAGQAIKYLEHHHHHH,not failed
17,MAEEKKKKLSIIVFSGTIDKLMPVGILTSGAAASGYEVNLFFTFWGLQAITKRSLNSQQPPQIDKNYEQMGPIMMQKMQEMKYPMWHQLVQQAKEIGEVKVFACSTTMEFFGIKREDLAEFVDDVVGVATFLDRAEGGTTLFI,not failed
18,MPLLQKRVIVSNKREKVINDRRSRQQTVTPAGSEMRYEASFRPENGGLEVVFRLDAPQYHALSVGDRGMLSYKGTAFVAFTPDPLEHHHHHH,not failed
